The supplement of paper PMC9112550, “Optimization of the antimicrobial peptide Bac7 by deep mutational scanning” (BMC Biology, 2022)

tested on: Escherichia coli TOP10; test: shrunken log2 fold change of peptide-encoding DNA abundance (4.5 h post-induction vs induction); higher = less antimicrobial activity (less host growth inhibition); settings: time post-induction: 4.5 h; library: site-saturation at positions 5, 18, 19, 20
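Also: peptides expressed intracellularly from a pBAD plasmid library in pooled LB shake-flask culture, induced with 0.3% L-arabinose, DNA abundance read by NGS, three biological replicates, DESeq2 with apeglm shrinkage.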

Sequence | shrunken log2 fold change
RRIRVRPPRLPRPRPRPYWEPRP | -0.508
RRIRVRPPRLPRPRPRPHYWPRP | -0.336
RRIRPRPPRLPRPRPRPWAPPRP | 0.153
RRIRKRPPRLPRPRPRPDWTPRP | 1.54
RRIRIRPPRLPRPRPRPRWCPRP | -0.11
RRIRVRPPRLPRPRPRPTKLPRP | -0.121
RRIRRRPPRLPRPRPRPYGQPRP | 0.501
RRIRIRPPRLPRPRPRPAIWPRP | 0.0492
RRIRCRPPRLPRPRPRPQDVPRP | -0.176
RRIRFRPPRLPRPRPRPRVLPRP | 0.121
RRIRWRPPRLPRPRPRPVSNPRP | 0.0778
RRIRKRPPRLPRPRPRPARSPRP | 0.89
RRIRPRPPRLPRPRPRPLLKPRP | 0.593
RRIRKRPPRLPRPRPRPEWCPRP | 0.278
RRIRDRPPRLPRPRPRPVMGPRP | 0.0247
RRIRARPPRLPRPRPRPFNCPRP | -0.357
RRIRRRPPRLPRPRPRPPRRPRP | 1.34
RRIRYRPPRLPRPRPRPMCCPRP | -3.16
RRIRIRPPRLPRPRPRPIYWPRP | -0.105
RRIRQRPPRLPRPRPRPGTRPRP | 0.111
RRIRNRPPRLPRPRPRPIVQPRP | -0.236
RRIRIRPPRLPRPRPRPNIPPRP | -0.818
RRIRFRPPRLPRPRPRPAFFPRP | 0.0784
RRIRKRPPRLPRPRPRPADWPRP | 0.666
RRIRFRPPRLPRPRPRPNHWPRP | -0.131

Sequence | shrunken log2 fold change
RRIRGRPPRLPRPRPRPSEDPRP | 0.71
RRIRKRPPRLPRPRPRPSQKPRP | 0.0284
RRIRGRPPRLPRPRPRPMRVPRP | 1.65
RRIRQRPPRLPRPRPRPVSWPRP | 1.47
RRIRLRPPRLPRPRPRPSYLPRP | -0.659
RRIRLRPPRLPRPRPRPSYQPRP | -0.255
RRIRDRPPRLPRPRPRPHNDPRP | -0.201
RRIRKRPPRLPRPRPRPHWAPRP | 0.118
RRIRSRPPRLPRPRPRPGLVPRP | 0.275
RRIRQRPPRLPRPRPRPWMFPRP | -0.374
RRIRCRPPRLPRPRPRPHDVPRP | -0.314
RRIRNRPPRLPRPRPRPQFVPRP | -0.0944
RRIRCRPPRLPRPRPRPGYQPRP | -0.06
RRIRKRPPRLPRPRPRPSRGPRP | 0.741
RRIRGRPPRLPRPRPRPNMYPRP | -0.185
RRIRIRPPRLPRPRPRPDWHPRP | -0.882
RRIRDRPPRLPRPRPRPWSTPRP | -0.274
RRIRNRPPRLPRPRPRPISCPRP | -0.205
RRIRQRPPRLPRPRPRPDCMPRP | 0.00805
RRIRNRPPRLPRPRPRPFEQPRP | -0.0506
RRIRPRPPRLPRPRPRPELCPRP | 0.277
RRIRSRPPRLPRPRPRPCVEPRP | 0.0654
RRIRVRPPRLPRPRPRPMDMPRP | -0.946
RRIRSRPPRLPRPRPRPWLDPRP | -0.0811
RRIRQRPPRLPRPRPRPPDCPRP | -0.0194

Sequence | shrunken log2 fold change
RRIRRRPPRLPRPRPRPMRTPRP | 0.911
RRIRMRPPRLPRPRPRPQPAPRP | 1.55
RRIRPRPPRLPRPRPRPRHEPRP | 0.0886
RRIRGRPPRLPRPRPRPFPTPRP | 0.63
RRIRMRPPRLPRPRPRPQDDPRP | -0.00208
RRIRRRPPRLPRPRPRPVVRPRP | 0.274
RRIRKRPPRLPRPRPRPSWQPRP | -0.212
RRIRTRPPRLPRPRPRPWTEPRP | 0.00497
RRIRWRPPRLPRPRPRPKAYPRP | -0.12
RRIRKRPPRLPRPRPRPHGKPRP | 0.109
RRIRTRPPRLPRPRPRPTYKPRP | -0.651
RRIRRRPPRLPRPRPRPGFTPRP | 0.00987
RRIRPRPPRLPRPRPRPSAMPRP | 0.0584
RRIRSRPPRLPRPRPRPMDEPRP | 0.0216
RRIRIRPPRLPRPRPRPRPWPRP | 0.154
RRIRIRPPRLPRPRPRPSLEPRP | -0.05
RRIRQRPPRLPRPRPRPGNQPRP | 0.0157
RRIRNRPPRLPRPRPRPLADPRP | -0.00474
RRIRRRPPRLPRPRPRPDHVPRP | 0.101
RRIRERPPRLPRPRPRPAMCPRP | -0.456
RRIRSRPPRLPRPRPRPAKQPRP | 0.134
RRIRNRPPRLPRPRPRPPKHPRP | 0.157
RRIRARPPRLPRPRPRPEAQPRP | 1.66
RRIRIRPPRLPRPRPRPYREPRP | -0.0673
RRIRKRPPRLPRPRPRPQRSPRP | 0.392

Sequence | shrunken log2 fold change
RRIRLRPPRLPRPRPRPGAQPRP | 0.0336
RRIRNRPPRLPRPRPRPNAFPRP | -0.126
RRIRRRPPRLPRPRPRPTISPRP | -0.28
RRIRYRPPRLPRPRPRPRKNPRP | -0.268
RRIRNRPPRLPRPRPRPRQMPRP | 0.0821
RRIRERPPRLPRPRPRPWALPRP | -0.144
RRIRSRPPRLPRPRPRPMTCPRP | 0.04
RRIRPRPPRLPRPRPRPRMSPRP | 0.232
RRIRCRPPRLPRPRPRPANQPRP | -0.137
RRIRCRPPRLPRPRPRPCIQPRP | 0.0591
RRIRRRPPRLPRPRPRPFMLPRP | 0.0692
RRIRDRPPRLPRPRPRPCGEPRP | 0.488
RRIRLRPPRLPRPRPRPAPSPRP | 0.163
RRIRVRPPRLPRPRPRPLCIPRP | -0.499
RRIRMRPPRLPRPRPRPAGLPRP | 0.47
RRIRSRPPRLPRPRPRPVFEPRP | -0.0222
RRIRWRPPRLPRPRPRPQHQPRP | -0.142
RRIRGRPPRLPRPRPRPYPMPRP | -0.142
RRIRPRPPRLPRPRPRPSGIPRP | -0.126
RRIRLRPPRLPRPRPRPLCFPRP | -0.233
RRIRCRPPRLPRPRPRPARNPRP | -0.182
RRIRWRPPRLPRPRPRPHNMPRP | -0.623
RRIRWRPPRLPRPRPRPYEHPRP | -0.12
RRIRGRPPRLPRPRPRPGWEPRP | 0.506
RRIRARPPRLPRPRPRPQIPPRP | -0.346

Sequence | shrunken log2 fold change
RRIRERPPRLPRPRPRPECGPRP | 0.612
RRIRPRPPRLPRPRPRPFDNPRP | -0.299
RRIRPRPPRLPRPRPRPDHYPRP | -0.203
RRIRWRPPRLPRPRPRPSHPPRP | -0.0699
RRIRRRPPRLPRPRPRPFLAPRP | 0.925
RRIRIRPPRLPRPRPRPQGCPRP | -0.00156
RRIRARPPRLPRPRPRPHIKPRP | -0.388
RRIRERPPRLPRPRPRPRHKPRP | -0.0631
RRIRVRPPRLPRPRPRPHPIPRP | -0.0473
RRIRQRPPRLPRPRPRPSFRPRP | -0.578
RRIRPRPPRLPRPRPRPRYKPRP | -0.269
RRIRERPPRLPRPRPRPGYQPRP | -0.00905
RRIRQRPPRLPRPRPRPPHLPRP | 0.205
RRIRARPPRLPRPRPRPDEEPRP | 0.901
RRIRWRPPRLPRPRPRPMAGPRP | 0.0179
RRIRHRPPRLPRPRPRPKTPPRP | 0.155
RRIRYRPPRLPRPRPRPGGEPRP | 0.173
RRIRKRPPRLPRPRPRPYDEPRP | -0.293
RRIRFRPPRLPRPRPRPPKWPRP | 0.286
RRIRPRPPRLPRPRPRPPQKPRP | 0.19
RRIRMRPPRLPRPRPRPISVPRP | 0.103
RRIRERPPRLPRPRPRPRTPPRP | 0.214
RRIRCRPPRLPRPRPRPRRNPRP | -0.0367
RRIRQRPPRLPRPRPRPCPNPRP | -0.152
RRIRHRPPRLPRPRPRPGWSPRP | 0.0123

Sequence | shrunken log2 fold change
RRIRHRPPRLPRPRPRPLREPRP | 0.819
RRIRPRPPRLPRPRPRPHVAPRP | 0.218
RRIRSRPPRLPRPRPRPKFMPRP | -0.0581
RRIRERPPRLPRPRPRPACQPRP | 0.146
RRIRQRPPRLPRPRPRPLHWPRP | 0.0127
RRIRARPPRLPRPRPRPFTPPRP | -0.0978
RRIRQRPPRLPRPRPRPEQQPRP | -0.0316
RRIRLRPPRLPRPRPRPDKGPRP | -0.162
RRIRERPPRLPRPRPRPITVPRP | 0.0995
RRIRWRPPRLPRPRPRPKQWPRP | 0.155
RRIRERPPRLPRPRPRPVTTPRP | -0.0245
RRIRIRPPRLPRPRPRPTVPPRP | 0.185
RRIRIRPPRLPRPRPRPKMKPRP | -0.457
RRIRRRPPRLPRPRPRPCMRPRP | 0.264
RRIRGRPPRLPRPRPRPLWEPRP | 1.51
RRIRKRPPRLPRPRPRPYTIPRP | -0.0634
RRIRARPPRLPRPRPRPFERPRP | -0.0075
RRIRVRPPRLPRPRPRPLAQPRP | 0.187
RRIRARPPRLPRPRPRPRKVPRP | 0.615
RRIRARPPRLPRPRPRPYDPPRP | -0.406
RRIRYRPPRLPRPRPRPEFKPRP | 0.0136
RRIRPRPPRLPRPRPRPGAVPRP | 0.379
RRIRHRPPRLPRPRPRPCLLPRP | -0.342
RRIRFRPPRLPRPRPRPPSHPRP | 0.123
RRIRLRPPRLPRPRPRPPTWPRP | 0.169
